From the supplement of paper PMC10567573

B1: HESX1 (parent)
chain: HVPNPPSGISFPSVVDHPMPEERA

Variants of: B1
Experiment: protein stability index of a GFP-peptide fusion (GPS, HEK-293T) (PSI 1-6); higher = more stable
Conditions: c terminus: a fixed tail appended
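Also: lentivirally expressed fusions sorted by FACS into six bins by GFP to DsRed ratio, PSI derived from sequencing read proportions per bin multiplied by bin number.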

| Variant | protein stability index |
| --- | --- |
| HVPNPPSGISFPSVVDYPMPEERA | 2.52 |
| HVPNPPSGISFPSVVDCPMPEERA | 2.39 |
| HVPNPPSGISFPSVVDSPMPEERA | 3.01 |
| HVPNPPSGISFPSVVDWPMPEERA | 2.19 |
| HVPNPPSGISFPSVVDTPMPEERA | 2.94 |
| HVPNPPSGISFPSVVDDPMPEERA | 3.28 |
| HVPNPPSGISFPSVVDFPMPEERA | 2.15 |
| HVPNPPSGISFPSVVDNPMPEERA | 2.8 |
| HVPNPPSGISFPSVVDGPMPEERA | 2.82 |
| HVPNPPSGISFPSVVDPPMPEERA | 2.11 |
| HVPNPPSGISFPSVVDRPMPEERA | 2.77 |
| HVPNPPSGISFPSVVDLPMPEERA | 2.39 |
| HVPNPPSGISFPSVVDMPMPEERA | 2.52 |
| HVPNPPSGISFPSVVDEPMPEERA | 3.29 |
| HVPNPPSGISFPSVVDAPMPEERA | 3.2 |
| HVPNPPSGISFPSVVDVPMPEERA | 2.57 |
| HVPNPPSGISFPSVVDIPMPEERA | 2.66 |
| HVPNPPSGISFPSVVDQPMPEERA | 2.68 |
| HVPNPPSGISFPSVVDKPMPEERA | 2.24 |
| HVPNPPSGISFPSVTDHPMPEERA | 3.13 |
| HVPNPPSGISFPSVEDHPMPEERA | 3.93 |
| HVPNPPSGISFPSVMDHPMPEERA | 3.49 |
| HVPNPPSGISFPSVNDHPMPEERA | 3.22 |
| HVPNPPSGISFPSVKDHPMPEERA | 3.2 |

| Variant | protein stability index |
| --- | --- |
| HVPNPPSGISFPSVDDHPMPEERA | 4.55 |
| HVPNPPSGISFPSVGDHPMPEERA | 3.85 |
| HVPNPPSGISFPSVRDHPMPEERA | 3.11 |
| HVPNPPSGISFPSVWDHPMPEERA | 2.17 |
| HVPNPPSGISFPSVSDHPMPEERA | 2.99 |
| HVPNPPSGISFPSVIDHPMPEERA | 3.16 |
| HVPNPPSGISFPSVLDHPMPEERA | 3.61 |
| HVPNPPSGISFPSVHDHPMPEERA | 3.23 |
| HVPNPPSGISFPSVYDHPMPEERA | 3.03 |
| HVPNPPSGISFPSVPDHPMPEERA | 3.06 |
| HVPNPPSGISFPSVADHPMPEERA | 2.65 |
| HVPNPPSGISFPSVFDHPMPEERA | 3.28 |
| HVPNPPSGISFPSVCDHPMPEERA | 2.04 |
| HVPNPPSGISFPSVQDHPMPEERA | 3.63 |
| HVPNPPSGISFPSYVDHPMPEERA | 3.21 |
| HVPNPPSGISFPSLVDHPMPEERA | 3.9 |
| HVPNPPSGISFPSHVDHPMPEERA | 3.86 |
| HVPNPPSGISFPSTVDHPMPEERA | 3.49 |
| HVPNPPSGISFPSWVDHPMPEERA | 3.59 |
| HVPNPPSGISFPSKVDHPMPEERA | 3.45 |
| HVPNPPSGISFPSIVDHPMPEERA | 3.11 |
| HVPNPPSGISFPSPVDHPMPEERA | 3.83 |
| HVPNPPSGISFPSQVDHPMPEERA | 4.01 |
| HVPNPPSGISFPSGVDHPMPEERA | 4.21 |

| Variant | protein stability index |
| --- | --- |
| HVPNPPSGISFPSMVDHPMPEERA | 3.1 |
| HVPNPPSGISFPSNVDHPMPEERA | 4.43 |
| HVPNPPSGISFPSSVDHPMPEERA | 3.52 |
| HVPNPPSGISFPSRVDHPMPEERA | 3.75 |
| HVPNPPSGISFPSVVDHPMPEARA | 2.72 |
| HVPNPPSGISFPSVVDHPMPEVRA | 2.16 |
| HVPNPPSGISFPSVVDHPMPEIRA | 2.75 |
| HVPNPPSGISFPSVVDHPMPEDRA | 2.76 |
| HVPNPPSGISFPSVVDHPMPENRA | 2.02 |
| HVPNPPSGISFPSVVDHPMPEHRA | 2.29 |
| HVPNPPSGISFPSVVDHPMPEQRA | 2.77 |
| HVPNPPSGISFPSVVDHPMPEYRA | 2.68 |
| HVPNPPSGISFPSVVDHPMPESRA | 2.3 |
| HVPNPPSGISFPSVVDHPMPEFRA | 1.9 |
| HVPNPPSGISFPSVVDHPMPEWRA | 2.37 |
| HVPNPPSGISFPSVVDHPMPEMRA | 2.15 |
| HVPNPPSGISFPSVVDHPMPELRA | 1.94 |
| HVPNPPSGISFPSVVDHPMPEKRA | 1.83 |
| HVPNPPSGISFPSVVDHPMPEGRA | 2.08 |
| HVPNPPSGISFPSVVDHPMPEPRA | 2.17 |
| HVPNPPSGISFPSVVDHPMPETRA | 2.33 |
| HVPNPPSGISFPSVVDHPMPECRA | 2.15 |
| HVPNPPSGISFPSVVDHPMPERRA | 2.26 |
| HVPNPPSGISFPSVVDHPDPEERA | 2.94 |

| Variant | protein stability index |
| --- | --- |
| HVPNPPSGISFPSVVDHPYPEERA | 2.27 |
| HVPNPPSGISFPSVVDHPHPEERA | 3.03 |
| HVPNPPSGISFPSVVDHPSPEERA | 3.18 |
| HVPNPPSGISFPSVVDHPKPEERA | 3.31 |
| HVPNPPSGISFPSVVDHPWPEERA | 2.29 |
| HVPNPPSGISFPSVVDHPVPEERA | 2.44 |
| HVPNPPSGISFPSVVDHPIPEERA | 2.59 |
| HVPNPPSGISFPSVVDHPNPEERA | 2.97 |
| HVPNPPSGISFPSVVDHPRPEERA | 2.83 |
| HVPNPPSGISFPSVVDHPCPEERA | 2.37 |
| HVPNPPSGISFPSVVDHPLPEERA | 2.39 |
| HVPNPPSGISFPSVVDHPEPEERA | 3.69 |
| HVPNPPSGISFPSVVDHPGPEERA | 2.44 |
| HVPNPPSGISFPSVVDHPAPEERA | 2.99 |
| HVPNPPSGISFPSVVDHPFPEERA | 2.65 |
| HVPNPPSGISFPSVVDHPQPEERA | 3.17 |
| HVPNPPSGISFPSVVDHPTPEERA | 2.59 |
| HVPNPPSGISFPSVVDHPMAEERA | 2.74 |
| HVPNPPSGISFPSVVDHPMLEERA | 2.48 |
| HVPNPPSGISFPSVVDHPMYEERA | 2.24 |
| HVPNPPSGISFPSVVDHPMGEERA | 2.61 |
| HVPNPPSGISFPSVVDHPMQEERA | 2.78 |
| HVPNPPSGISFPSVVDHPMDEERA | 2.98 |
| HVPNPPSGISFPSVVDHPMIEERA | 2.49 |

| Variant | protein stability index |
| --- | --- |
| HVPNPPSGISFPSVVDHPMCEERA | 2.45 |
| HVPNPPSGISFPSVVDHPMREERA | 2.88 |
| HVPNPPSGISFPSVVDHPMVEERA | 2.55 |
| HVPNPPSGISFPSVVDHPMNEERA | 3.28 |
| HVPNPPSGISFPSVVDHPMMEERA | 2.79 |
| HVPNPPSGISFPSVVDHPMWEERA | 2.1 |
| HVPNPPSGISFPSVVDHPMHEERA | 2.65 |
| HVPNPPSGISFPSVVDHPMFEERA | 2.21 |
| HVPNPPSGISFPSVVDHPMSEERA | 2.82 |
| HVPNPPSGISFPSVVDHPMEEERA | 2.48 |
| HVPNPPSGISFPSVVDHPMTEERA | 2.91 |
| HVPNPPSGISFPSVVDHPMKEERA | 2.54 |
| HVPNPPSGISFPSVVDHKMPEERA | 2.7 |
| HVPNPPSGISFPSVVDHEMPEERA | 2.85 |
| HVPNPPSGISFPSVVDHFMPEERA | 2.42 |
| HVPNPPSGISFPSVVDHQMPEERA | 2.61 |
| HVPNPPSGISFPSVVDHTMPEERA | 2.51 |
| HVPNPPSGISFPSVVDHSMPEERA | 2.61 |
| HVPNPPSGISFPSVVDHWMPEERA | 2.28 |
| HVPNPPSGISFPSVVDHHMPEERA | 2.49 |
| HVPNPPSGISFPSVVDHIMPEERA | 2.36 |
| HVPNPPSGISFPSVVDHRMPEERA | 2.79 |
| HVPNPPSGISFPSVVDHVMPEERA | 2.64 |
| HVPNPPSGISFPSVVDHAMPEERA | 2.61 |

| Variant | protein stability index |
| --- | --- |
| HVPNPPSGISFPSVVDHGMPEERA | 2.43 |
| HVPNPPSGISFPSVVDHCMPEERA | 2.25 |
| HVPNPPSGISFPSVVDHYMPEERA | 2.48 |
| HVPNPPSGISFPSVVDHLMPEERA | 2.56 |
| HVPNPPSGISFPSVVDHMMPEERA | 2.49 |
| HVPNPPSGISFPSVVDHDMPEERA | 2.78 |
| HVPNPPSGISFPSVVDHNMPEERA | 2.62 |
| HVPNPPSGISFPSVVDHPMPEEWA | 2.37 |
| HVPNPPSGISFPSVVDHPMPEEQA | 2.21 |
| HVPNPPSGISFPSVVDHPMPEEDA | 3 |
| HVPNPPSGISFPSVVDHPMPEEAA | 2.53 |
| HVPNPPSGISFPSVVDHPMPEEVA | 2.49 |
| HVPNPPSGISFPSVVDHPMPEEYA | 2.34 |
| HVPNPPSGISFPSVVDHPMPEETA | 2.6 |
| HVPNPPSGISFPSVVDHPMPEESA | 2.36 |
| HVPNPPSGISFPSVVDHPMPEEEA | 2.76 |
| HVPNPPSGISFPSVVDHPMPEEPA | 2.76 |
| HVPNPPSGISFPSVVDHPMPEEGA | 3.19 |
| HVPNPPSGISFPSVVDHPMPEEIA | 2.58 |
| HVPNPPSGISFPSVVDHPMPEENA | 2.73 |
| HVPNPPSGISFPSVVDHPMPEEKA | 2.77 |
| HVPNPPSGISFPSVVDHPMPEEMA | 2.38 |
| HVPNPPSGISFPSVVDHPMPEECA | 2.56 |
| HVPNPPSGISFPSVVDHPMPEEFA | 2.11 |

| Variant | protein stability index |
| --- | --- |
| HVPNPPSGISFPSVVDHPMPEEHA | 2.99 |
| HVPNPPSGISFPSVVDHPMPEELA | 2.1 |
| HVPNPPSGISFPSVVDHPMPMERA | 1.86 |
| HVPNPPSGISFPSVVDHPMPHERA | 2.45 |
| HVPNPPSGISFPSVVDHPMPQERA | 2.33 |
| HVPNPPSGISFPSVVDHPMPCERA | 2.71 |
| HVPNPPSGISFPSVVDHPMPIERA | 1.95 |
| HVPNPPSGISFPSVVDHPMPDERA | 2.85 |
| HVPNPPSGISFPSVVDHPMPSERA | 2.56 |
| HVPNPPSGISFPSVVDHPMPYERA | 2.43 |
| HVPNPPSGISFPSVVDHPMPVERA | 2.48 |
| HVPNPPSGISFPSVVDHPMPKERA | 1.89 |
| HVPNPPSGISFPSVVDHPMPLERA | 1.97 |
| HVPNPPSGISFPSVVDHPMPWERA | 2 |
| HVPNPPSGISFPSVVDHPMPGERA | 2.08 |
| HVPNPPSGISFPSVVDHPMPRERA | 2.52 |
| HVPNPPSGISFPSVVDHPMPPERA | 2.06 |
| HVPNPPSGISFPSVVDHPMPTERA | 2.52 |
| HVPNPPSGISFPSVVDHPMPAERA | 2.49 |
| HVPNPPSGISFPSVVDHPMPFERA | 1.96 |
| HVPNPPSGISFPSVVDHPMPNERA | 2.37 |
| HVPNPPSGISFPSVVDHPMPEERE | 2.95 |
| HVPNPPSGISFPSVVDHPMPEERD | 2.77 |
| HVPNPPSGISFPSVVDHPMPEERC | 2.09 |

| Variant | protein stability index |
| --- | --- |
| HVPNPPSGISFPSVVDHPMPEERF | 2.3 |
| HVPNPPSGISFPSVVIHPMPEERA | 1.92 |
| HVPNPPSGISFPSVVMHPMPEERA | 2.19 |
| HVPNPPSGISFPSVVSHPMPEERA | 2.22 |
| HVPNPPSGISFPSVVPHPMPEERA | 2.37 |
| HVPNPPSGISFPSVVVHPMPEERA | 2.35 |
| HVPNPPSGISFPSVVAHPMPEERA | 2.72 |
| HVPNPPSGISFPSVVFHPMPEERA | 1.9 |
| HVPNPPSGISFPSVVNHPMPEERA | 2 |
| HVPNPPSGISFPSVVRHPMPEERA | 2.51 |
| HVPNPPSGISFPSVVQHPMPEERA | 2.51 |
| HVPNPPSGISFPSVVWHPMPEERA | 1.57 |
| HVPNPPSGISFPSVVHHPMPEERA | 2.81 |
| HVPNPPSGISFPSVVTHPMPEERA | 2.03 |
| HVPNPPSGISFPSVVEHPMPEERA | 2.73 |
| HVPNPPSGISFPSVVGHPMPEERA | 2.18 |
| HVPNPPSGISFPSVVCHPMPEERA | 2.4 |
| HVPNPPSGISFPSVVYHPMPEERA | 2.57 |
| HVPNPPSGISFPSVVKHPMPEERA | 2.21 |
| HVPNPPSGISFPSVVLHPMPEERA | 2.36 |
